Test results as given in US20050281828A1 (published 2005).
Where a chain is given by its changes, count along the chain named.

T1: recombinant human L-SIGN (L-SIGNFc fusion protein) (human, UniProt Q9H2X3 78-399)
T1 construct: also called DC-SIGNR; human DC-SIGNR; not shown: Fc part of the fusion
T1 sequence (looked up): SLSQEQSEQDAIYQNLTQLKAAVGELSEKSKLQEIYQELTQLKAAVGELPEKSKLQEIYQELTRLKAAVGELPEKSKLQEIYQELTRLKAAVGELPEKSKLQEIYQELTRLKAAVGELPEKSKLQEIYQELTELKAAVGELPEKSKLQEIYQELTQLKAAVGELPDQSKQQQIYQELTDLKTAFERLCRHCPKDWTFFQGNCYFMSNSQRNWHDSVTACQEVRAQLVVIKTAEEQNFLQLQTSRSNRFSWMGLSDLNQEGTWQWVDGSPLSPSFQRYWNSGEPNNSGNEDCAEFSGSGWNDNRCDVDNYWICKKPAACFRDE

T2: recombinant human DC-SIGN (human, UniProt Q9NNX6 62-404)
T2 construct: Added to plates coated with anti-human Fc, so probably an Fc fusion
T2 sequence (looked up): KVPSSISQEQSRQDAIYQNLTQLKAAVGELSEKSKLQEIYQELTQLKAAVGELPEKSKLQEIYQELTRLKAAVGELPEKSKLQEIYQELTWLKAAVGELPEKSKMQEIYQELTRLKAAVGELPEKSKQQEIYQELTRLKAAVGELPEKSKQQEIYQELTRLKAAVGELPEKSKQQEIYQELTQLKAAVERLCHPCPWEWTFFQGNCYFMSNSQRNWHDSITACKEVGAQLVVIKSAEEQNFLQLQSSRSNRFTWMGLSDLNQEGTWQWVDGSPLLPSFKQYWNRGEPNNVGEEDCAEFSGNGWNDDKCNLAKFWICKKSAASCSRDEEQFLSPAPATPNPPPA

T3: DC-SIGN receptor on cells (K562/DC-SIGN) (human, UniProt Q9NNX6 1-404)
T3 construct: whole, on cells
T3 sequence (looked up): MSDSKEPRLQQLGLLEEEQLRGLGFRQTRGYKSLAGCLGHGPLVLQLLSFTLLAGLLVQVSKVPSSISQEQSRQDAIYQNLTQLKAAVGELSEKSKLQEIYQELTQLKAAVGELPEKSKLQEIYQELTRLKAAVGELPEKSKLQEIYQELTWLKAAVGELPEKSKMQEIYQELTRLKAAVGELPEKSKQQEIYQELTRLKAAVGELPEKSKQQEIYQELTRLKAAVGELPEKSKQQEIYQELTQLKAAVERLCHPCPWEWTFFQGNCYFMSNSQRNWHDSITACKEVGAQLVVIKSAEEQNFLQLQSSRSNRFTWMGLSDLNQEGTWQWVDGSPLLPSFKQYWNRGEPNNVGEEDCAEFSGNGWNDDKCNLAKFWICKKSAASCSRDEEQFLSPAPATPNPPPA

T4: L-SIGN receptor on cells (K562/L-SIGN) (human, UniProt Q9H2X3 1-399)
T4 construct: whole, on cells; also called L-SIGN on LSECs
T4 sequence (looked up): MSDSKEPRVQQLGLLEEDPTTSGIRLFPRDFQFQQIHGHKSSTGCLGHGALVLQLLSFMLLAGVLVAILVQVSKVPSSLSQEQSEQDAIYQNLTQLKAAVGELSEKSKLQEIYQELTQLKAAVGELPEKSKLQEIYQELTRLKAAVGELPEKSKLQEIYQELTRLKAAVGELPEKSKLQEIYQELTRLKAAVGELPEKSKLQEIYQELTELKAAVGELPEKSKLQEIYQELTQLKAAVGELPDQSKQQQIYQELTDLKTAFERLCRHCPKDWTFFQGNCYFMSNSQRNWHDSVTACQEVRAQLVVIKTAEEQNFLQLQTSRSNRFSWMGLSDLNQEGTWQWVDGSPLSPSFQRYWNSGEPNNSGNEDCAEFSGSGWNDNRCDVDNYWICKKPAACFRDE

B1: IgG1k clone A10 (Fab, V domains shown)
VH: EVQLQQSGPELEKPGASVKISCKASGYSFTGYNMNWVKQSNGKSLEWIGNIDPYYGDITYNQKFKGKATLTVDKSSSTAYMQLKSLTSEDSAVYYCARTATALYTMDYWGQGTSVTVSS
VL: EIVLTQSPAIMSASLGERVTMTCTASSSVSSSYLHWYQQKPGSSPKLWIYSTSNLASGVPARFSGSGSGTSYSLTISSMEAEDAATYYCHQYHRSPQTFGGGTKLEIK
notes: phage-Fab screening
B2: IgG1k clone B7 (Fab, V domains shown)
VH: B1 VH with N41S, I51F, D57V
VL: EIVLTQSPAIMSASPGEKVTMTCRASSSVSSSYLHWYQQKSGASPKLWIYSTSNLASGVPARFSGSGSGTSYSLTISSVEAEDAATYYCQQYSGYPLTFGSGTKLEIK
notes: phage-Fab screening
B3: IgG1k clone C7 (phage-Fab screening) (Fab, V domains shown)
VH: B1 VH with N41S, I51F, D57V
VL: B2 VL
B4: IgG1k clone D8 (Fab, V domains shown)
VH: B1 VH with D57G, I58S, T59S
VL: B2 VL with L97G, S101G
notes: phage-Fab screening
B5: L-SIGN Fab clone C7 (soluble, purified) (Fab, V domains shown)
VH: B1 VH with N41S, I51F, D57V
VL: B2 VL

Each binder was assayed against T1, recombinant human L-SIGN (L-SIGNFc …) (assay: ELISA, recombinant L-SIGN).

Binder | OD405 [OD405]
B1 | 2.9
B2 | 2.7
B3 | 3.5
B4 | 2.1

What follows are binders tested against T2, recombinant human DC-SIGN (assay: ELISA, recombinant DC-SIGN).

Binder | OD405 [OD405]
B1 | 0.1
B2 | 0.1
B3 | 0.1
B4 | 0.1

What follows are binders tested against T3, DC-SIGN receptor on cells (K562/DC-SIGN) (assay: flow cytometry, K562/DC-SIGN cells).

Binder | binding result
B5 | no binding (tested: 20 ug/ml)

Each binder was assayed against T4, L-SIGN receptor on cells (K562/L-SIGN) (assay: flow cytometry, K562/L-SIGN cells).

Binder | Geo. Mean Fluorescence
B1 | 21.3
B2 | 90.9
B3 | 101
B4 | 17.3
